US20130336947

What was measured:
[1] = test system: ZF11xHunt-Kox-1 (Artificial); assay: cell_activity
[2] = test system: ZF6xHunt-Kox-1 (Artificial); assay: cell_activity; conditions: htt mRNA (up to 2.5-fold); protein up to 2-fold; STHdh Q111/Q111, 20 days
Sequence of ZF6xHunt-Kox-1 (Artificial) (chain, as listed by the source): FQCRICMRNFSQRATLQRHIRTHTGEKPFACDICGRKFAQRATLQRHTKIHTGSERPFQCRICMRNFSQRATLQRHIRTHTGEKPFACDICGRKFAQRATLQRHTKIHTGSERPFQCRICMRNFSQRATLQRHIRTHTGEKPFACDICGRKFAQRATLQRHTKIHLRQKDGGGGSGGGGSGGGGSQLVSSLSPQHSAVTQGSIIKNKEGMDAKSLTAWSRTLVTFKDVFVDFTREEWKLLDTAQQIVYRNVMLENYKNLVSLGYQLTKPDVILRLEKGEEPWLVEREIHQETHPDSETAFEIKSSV

Sequence of ZF11xHunt-Kox-1 (Artificial) (chain, as listed by the source): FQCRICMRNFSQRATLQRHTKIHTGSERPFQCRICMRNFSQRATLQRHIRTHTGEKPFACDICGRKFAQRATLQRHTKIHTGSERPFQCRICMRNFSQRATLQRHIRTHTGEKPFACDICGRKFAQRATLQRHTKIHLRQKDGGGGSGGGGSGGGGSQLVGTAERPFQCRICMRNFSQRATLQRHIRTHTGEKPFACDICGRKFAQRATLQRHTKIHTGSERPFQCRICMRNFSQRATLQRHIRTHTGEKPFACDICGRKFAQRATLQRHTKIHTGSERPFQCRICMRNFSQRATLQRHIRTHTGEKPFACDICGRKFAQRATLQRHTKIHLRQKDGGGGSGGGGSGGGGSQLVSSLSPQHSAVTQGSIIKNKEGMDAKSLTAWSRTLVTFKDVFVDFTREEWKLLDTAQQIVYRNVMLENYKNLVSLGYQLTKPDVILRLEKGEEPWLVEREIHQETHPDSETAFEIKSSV

STHdh Q111 mutant htt locus
activity (% mRNA reduction) ([1]; protein reduced 95%, STHdh Q111/Q111, 20 days): 80
activity (fold repression) [2]: < 2.5

R6/2 mutant HTT transgene
activity (% mRNA reduction) ([1]; AAV2/1 striatal delivery, R6/2 mice, week 6, average): > 45
